Read-outs that look alike come from different tables or passages of the source.
T1: recombinant CD177 (UniProt Q8N6Q3 22-408)
T1 construct: CD177, GPI-anchored neutrophil membrane receptor; recombinant soluble form that lacks the C-terminal GPI-anchor domain; secreted via an N-terminal Ig1 secretion signal peptide; Made from plasmid pTT5; also called rCD177; not shown: Fc (human Ig1), C-terminal, cleaved
T1 sequence (looked up): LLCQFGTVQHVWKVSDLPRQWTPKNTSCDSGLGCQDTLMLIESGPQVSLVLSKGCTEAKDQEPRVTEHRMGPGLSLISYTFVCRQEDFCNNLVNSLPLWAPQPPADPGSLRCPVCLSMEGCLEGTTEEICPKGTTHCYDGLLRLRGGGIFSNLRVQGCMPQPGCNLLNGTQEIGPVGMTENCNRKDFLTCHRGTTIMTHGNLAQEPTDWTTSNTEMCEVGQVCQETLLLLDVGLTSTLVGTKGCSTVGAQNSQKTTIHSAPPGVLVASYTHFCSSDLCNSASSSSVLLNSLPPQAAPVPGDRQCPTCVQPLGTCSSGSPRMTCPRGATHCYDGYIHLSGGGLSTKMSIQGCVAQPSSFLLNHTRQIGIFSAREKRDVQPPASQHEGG

B1: neutrophil-derived PR3 (enzyme, UniProt P24158 28-248, looked up)
chain: IVGGHEAQPHSRPYMASLQMRGNPGSHFCGGTLIHPSFVLTAAHCLRDIPQRLVNVVLGAHNVRTQEPTQQHFSVAQVFLNNYDAENKLNDVLLIQLSSPANLSASVATVQLPQQDQPVPHGTQCLAMGWGRVGAHDPPAQVLQELNVTVVTFFCRPHNICTFVPRRKAGICFGDSGGPLICDGIIQGIDSFVIWGCATRLFPDFFTRVALYVDWIRSTLR
notes: Proteinase 3 (PR3), neutrophil serine protease, purified from neutrophils, proteolytically active; also called nPR3; proteinase 3; source: bought: Athens Research&Technology; neutrophil-derived

Biological target: T1, recombinant CD177
Test: SPR; CD177 immobilised on a GLH sensor chip by standard amine chemistry, PR3 as soluble analyte; ProteOn XPR36

| Molecule | Kd [nM] | Kd (both partners purified) [nM] |
| --- | --- | --- |
| monomeric PR3 hydrophobic patch mutant (Ile217Ala, Trp218Ala) (enzyme) | 57 |  |
| recombinant PR3 (enzyme) | 4.1 |  |
| B1 |  | 4.1 |

Reference: paper PMC5327412, “Characterization of the CD177 interaction with the ANCA antigen proteinase 3” (Scientific Reports, 2017)
